Reference: US20050042209A1, “MUC1 extracellular domain and cancer treatment compositions and methods derived therefrom” (priority 2000, published 2005)

Tested on: HCT116 cells
Assay: Apoptosis (sub-G1 DNA, TUNEL) in HCT116 transfectants
Assay type: cell-based, human
Conditions: FIG. 19
Procedure: Methods. Apoptotic cells were quantified by analysis of sub-G1 DNA and TUNEL staining. To assess sub-G1 DNA content, cells were harvested, washed with PBS, fixed with 80% ethanol, and incubated in PBS containing 20 ng/ml RNase (Roche) for 60 min at 37° C. Cells were then stained with […] propidium iodide (Sigma) for 30 min at room temperature in the dark. DNA content was analyzed by flow cytometry (EPICS XL-MCL, Coulter Corp.). Apoptotic cells with DNA fragmentation were detected by staining with the In Situ cell death detection kit (TUNEL; Roche Applied Science) and visualized by confocal microscopy (ZEISS LSM510). After staining, cells were analyzed by flow cytometry. Other experimental procedures and methods were as described in Example 15.
Results. To determine if MUC1 affects the induction of apoptosis by CDDP, cells were analyzed for sub-G1 DNA content. […] Stimulation of cell surface death receptors with TNF-α or the TNF-related apoptosis inducing factor TRAIL is associated with activation of the extrinsic apoptotic pathway. To determine if MUC1 affects death receptor-induced apoptosis, HCT116 cells were treated with TNF-α.

B1: TRAIL: TNF-related apoptosis inducing factor TRAIL, rhTRAIL (Calbiochem-Novabiochem) (protein, UniProt P50591 1-281, looked up)
Tumor necrosis factor ligand …: MAMMEVQGGPSLGQTCVLIVIFTVLLQSLCVAVTYVYFTNELKQMQDKYSKSGIACFLKEDDSYWDPNDEESMNSPCWQVKWQLRQLVRKMILRTSEETISTVQEKQQNISPLVRERGPQRVAAHITGTRGRSNTLSSPNSKNEKALGRKINSWESSRSGHSFLSNLHLRNGELVIHEKGFYYIYSQTYFRFQEEIKENTKNDKQMVQYIYKYTSYPDPILLMKSARNSCWSKDAEYGLYSIYQGGIFELKENDRIFVSVTNEHLIDMDHEASFFGAFLVG
TRAIL-induced apoptosis, effect of MUC1 (HCT116/MUC1 cells): attenuated this response
apoptosis (HCT116/vector cells, 100 ng/ml TRAIL without CHX): effective in inducing apoptosis
